Experimental data: patent US20080118529

Tests used:
[1] = biological target: human Aβ(1-40) Dutch type
[2] = biological target: T1, human fibrin α-chain (148-160) amyloid fragment with Lys157Ala mutation (FP13)
T1 chain: KRLEVDIDIAIRS

B1: human factor XII from plasma (Calbiochem, #233490) (protein)
chain: IPPWEAPKEHKYKAEEHTVVLTVTGEPCHFPFQYHRQLYHKCTHKGRPGPQPWCATTPNFDQDQRWGYCLEPKKVKDHCSKHSPCQKGGTCVNMPSGPHCLCPQHLTGNHCQKEKCFEPQLLRFFHKNEIWYRTEQAAVARCQCKGPDAHCQRLASQACRTNPCLHGGRCLEVEGHRLCHCPVGYTGAFCDVDTKASCYDGRGLSYRGLARTTLSGAPCQPWASEATYRNVTAEQARNWGLGGHAFCRNPDNDIRPWCFVLNRDRLSWEYCDLAQCQTPTQAAPPTPVSPRLHVPLMPAQPAPPKPQPTTRTPPQSQTPGALPAKREQPPSLTRNGPLSCGQRLRKSLSSMTRVVGGLVALRGAHPYIAALYWGHSFCAGSLIAPCWVLTAAHCLQDRPAPEDLTVVLGQERRNHSCEPCQTLAVRSYRLHEAFSPVSYQHDLALLRLQEDADGSCALLSPYVQPVCLPSGAARPSETTLCQVAGWGHQFEGAEEYASFLQEAQVPFLSLERCSAPDVHGSSILPGMLCAGFLEGGTDACQGDSGGPLVCEDQAAERRLTLQGIISWGSGCGDRNKPGVYTDVAYYLAWIREHTVS
[1]
  activation of factor XII, detected by the conversion of Chromozym-PK upon formation of kallikrein from prekallikrein: Like kaolin, amyloid-like peptide aggregates of FP13 and Aβ stimulate the activation of factor XII
  auto-activation of purified factor XII, substrate S-2222: All three amyloid-like aggregates are able to induce factor XII auto-activation ... the potency of the Aβ(1-40) E22Q is somewhat lower
[2]
  activation of factor XII, detected by the conversion of Chromozym-PK upon formation of kallikrein from prekallikrein: Like kaolin, amyloid-like peptide aggregates of FP13 and Aβ stimulate the activation of factor XII
